In FireProtDB (doi:10.1021/bi992119u):

Conditions: Pseudomonas putida; pH 7; 25 °C; Urea; CD; Sodium phosphate 25 mM; reversible: yes; whole UniProt chain shown

B1: Steroid Delta-isomerase wild type, P07445 (protein)
chain: MNLPTAQEVQGLMARYIELVDVGDIEAIVQMYADDATVEDPFGQPPIHGREQIAAFYRQGLGGGKVRACLTGPVRASHNGCGAMPFRVEMVWNGQPCALDVIDVMRFDEHGRIQTMQAYWSEVNLSVREPQ
  denaturant m value: 3.39 kcal/mol/M
  denaturant midpoint (higher = more stable): 5.22 M
  unfolding free energy: 24.3 kcal/mol
